According to the nanobody polyreactivity screen of Harvey et al. (2022):

Assay: yeast display, Sf9 membrane polyspecificity reagent, FACS + sequencing; frameworks hold sequencing errors
Procedure, shortened: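 Using colony PCR, genes from sorted yeast display clones were amplified, then sequenced on MiSeq at 2 × 250 and filtered by CDR length. The clones had been stained with 10% biotinylated, detergent-solubilized Sf9 membrane reagent for 1 hour at 4 °C and sorted by FACS into low and high (top ~1%) gates on anti-HA and streptavidin fluorescence. Polyreactivity labels come from the gate of origin.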
With “QVQLVESGGGLVQAGGSLRLSCAASGFTFLVYAMGWYRQAPGKERELVAAITWSGDSTYYADSVKGRFTISRDNAKNTVYLQMNSLKPEDTAVYYCAAAYRYGTLYYYWGQGTQVTVSS” the “polyreactivity (PSR sort gate)” value was “low polyreactivity”.
With “QVQLVESGGGLVQAGGSLRLSCAASGFTFLWNAMGWYRQAPGKERELVAAINGNSGNTYYADSVKGRFTISRDNAKNTVYLQMNSLKPEDTAVYYCARRGGVRGYYGGRRSKMDYWGQGTQVTVSS” the “polyreactivity (PSR sort gate)” value was “low polyreactivity”.
For “QVQLVESGGGLVQAGGSLRLSCAASGFTFLYNAMGWSRQAPGKERELVASINSGGSTNYADSVKGRFTISRDNAKNTVYLQMNSLKPEDTAVYYFNAKRHVRKGDYWGQGTQVTVSS”, the “polyreactivity (PSR sort gate)” value was “low polyreactivity”.
With “QVQLVESGGGLVQAGGSLRLSCAASGFTFLYNARGWYIQAPGKERELVASINSGGSTNYADSVKGRFTISRDNAKNTVYLQKNSLKPEDTAVYYWNAKRHVRKGDYWGQGTQVTVSS” the “polyreactivity (PSR sort gate)” value was “low polyreactivity”.
For “QVQLVESGGGLVQAGGSLRLSCAASGFTFNANAMGWYRQAPGKERELVSVITRSGGRTYYADSVKGGFTISRDTAKNTVYLQMNSLKPEDSAVYYCATEGPSRVYQGTDSASDYWGQGTQVTVSS”, the “polyreactivity (PSR sort gate)” value was “high polyreactivity”.
In the case of “QVQLVESGGGLVQAGGSLRLSCAASGFTFNAYAMGWYRQAPGKERELVAAINVSGGITYYADSVKGRFTISRDNAKNTVYLQMNSLKPEDTAVYYCARDSYYSQVYRRGYSVPWRLDYWGQGTQVTVSS”, the “polyreactivity (PSR sort gate)” value is reported as “low polyreactivity”.
For “QVQLVESGGGLVQAGGSLRLSCAASGFTFNDYAMGWYRQAPGKERELVAAIDWSGGRTYYADSVKGRFTISRDNAKNTVYLQLNSLKPEDTAVDYCAVEDLSHAYVQHYRYGYGYWGQGTQVTVSS”, the “polyreactivity (PSR sort gate)” value was “low polyreactivity”.
With “QVQLVESGGGLVQAGGSLRLSCAASGFTFNFYAMGWYRQAPGKESELVASITSSGARTYYADSVKGRFTISSDNPKNTVYLQMNSLKPEDTAVYYCAARVYRYSASRAYDYWGQGTQVTVSS” the “polyreactivity (PSR sort gate)” value was “high polyreactivity”.
For “QVQLVESGGGLVQAGGSLRLSCAASGFTFNFYTMGWYRQAPGKERELVAAITWSGGSTYYADSVKGRFTISRDNAKNTVYLQLNSLKPEDTAVYYCAATQQSRDRRFNYWGQGTQVTVSS”, the “polyreactivity (PSR sort gate)” value was “high polyreactivity”.
In the case of “QVQLVESGGGLVQAGGSLRLSCAASGFTFNGYAMGWYRQAPGHERELVAGITRRGGITYYADSVKGRFTISRDNAKNTVYLPMNSLKPEDTAVYYCARDYIGHALIHHASLYYYWGQGTQVTVSS”, the “polyreactivity (PSR sort gate)” value is reported as “high polyreactivity”.
With “QVQLVESGGGLVQAGGSLRLSCAASGFTFNIKTKGSDRQAPGKDRELVAAITSGGNSSYADSVKGRLTISRDNAKNTVYLQMNRVKPEDTAVYYCATEDFRTDTGMYYWGQGTQVTVSS” the “polyreactivity (PSR sort gate)” value was “low polyreactivity”.
With “QVQLVESGGGLVQAGGSLRLSCAASGFTFNRYAMGWYRQAPGKERELVAAIRSRGGSTYYADSVKGRFTISRDNAKNTVYLQMNSLKPEDTAVYYCAARSFQFYRFDYWGQGTQVTVSS” the “polyreactivity (PSR sort gate)” value was “high polyreactivity”.
For “QVQLVESGGGLVQAGGSLRLSCAASGFTFNRYAMGWYRQAPGKERELVAAISRGGGSTYYADSVKGRFTISRDNAKNTVYLQMNSLKPEDTAVYYCAADTRVRTCRYGFWGQGTQVNVSS”, the “polyreactivity (PSR sort gate)” value was “high polyreactivity”.
For “QVQLVESGGGLVQAGGSLRLSCAASGFTFNRYVMGWYRQAPGKERELVAAISGGGARTYYADSVKGRFTISRDNAKNTVYLQMNSLKPEDTAVYYCNARYKSHSVSDYYYWGQGTQVTVSS”, the “polyreactivity (PSR sort gate)” value was “high polyreactivity”.
In the case of “QVQLVESGGGLVQAGGSLRLSCAASGFTFNYYAMGWYRQAPGKERELVAAIDSGGNTYYADSVKGRFTISRDNAKNTVYLQMNRLKPEDTAVYYCAAYRDYQYDYWGQGTQVTVSS”, the “polyreactivity (PSR sort gate)” value is reported as “low polyreactivity”.
In the case of “QVQLVESGGGLVQAGGSLRLSCAASGFTFNYYAMGWYRQAPGKERELVAGITRSGVSTNYADSVKGRFTISRDNAKNTVYLQMNSLKPEDTAGYYSAREEGRRYRGWPYVFAPQHDYWGQGTQVTVSS”, the “polyreactivity (PSR sort gate)” value is reported as “high polyreactivity”.
In the case of “QVQLVESGGGLVQAGGSLRLSCAASGFTFPEYAMGWYRQAPGKERELVAAISSGDSTNYADSVKGRLTISRDNAKNTVYLQMNILKPEDTAVDYCAADYYDYYYEYEYWGQGTQVTVSS”, the “polyreactivity (PSR sort gate)” value is reported as “low polyreactivity”.
With “QVQLVESGGGLVQAGGSLRLSCAASGFTFPGNAMGWYRHPPGKERELVAAISSTDRTTNADSVKGRFTISRDNAKNTGYLQMNSLKPEDTAVYYCYTATRRRPRGYWGQGTQVTVSS” the “polyreactivity (PSR sort gate)” value was “high polyreactivity”.
In the case of “QVQLVESGGGLVQAGGSLRLSCAASGFTFPGNAMGWYRQAPGKEREFVAAITRSSGSTSYADSVKGRFTISRDNAKNTVYLQMNSLKPEDTAVYRDYWGQGTQVTVSS”, the “polyreactivity (PSR sort gate)” value is reported as “low polyreactivity”.
For “QVQLVESGGGLVQAGGSLRLSCAASGFTFPKYAMGWYRQAPGKERELVAAITWSGGSTRYADSVKGRFTISRDNAKNTVYLQMNSLKPEDTAVYYCAADRRSGYSRYKYGRGDYWGQGTQVTVSS”, the “polyreactivity (PSR sort gate)” value was “high polyreactivity”.
In the case of “QVQLVESGGGLVQAGGSLRLSCAASGFTFPLNAMGWYRQAPGKERELVAAISGSGGSTYYADSVKGRFTISRDNAKNTVYLQMNSLKPEDTAVYYCAAGIYYWGQGTQVTVSS”, the “polyreactivity (PSR sort gate)” value is reported as “low polyreactivity”.
With “QVQLVESGGGLVQAGGSLRLSCAASGFTFPLNARGWYRQAPGKERELVAAITNGGTTYYADSVKGRFTISRDNAKNTVYLQMHSLKPEDTAVYYCAAYTYRYGSFKYGYWGQGTQVTVSS” the “polyreactivity (PSR sort gate)” value was “low polyreactivity”.
In the case of “QVQLVESGGGLVQAGGSLRLSCAASGFTFPQYVMGGYRQAPGKERELVAAISSRGGRTYYADSVKGRFTISRDNAKNTVYLQMNSLIPEDTAVYYCAKGKRDSRAFDYWGQGTQVTVSS”, the “polyreactivity (PSR sort gate)” value is reported as “high polyreactivity”.
With “QVQLVESGGGLVQAGGSLRLSCAASGFTFPRNVMGWYRQAPGKERELVAAISRSGSRTSYADSVKGRFTISRDNAKNTVYLQMNSVKPEDTAVYYCATSSGVGGYAAYYYWGQGTQVTVSS” the “polyreactivity (PSR sort gate)” value was “high polyreactivity”.
For “QVQLVESGGGLVQAGGSLRLSCAASGFTFPRYAMGWYRQAPGKERELVAAISTSGDSTYYADSVKGRFTISRDNAKNTVYLQMNSLKPEDTAVYYCAARVVRGRYGYWGQGTQVTVSS”, the “polyreactivity (PSR sort gate)” value was “high polyreactivity”.
For “QVQLVESGGGLVQAGGSLRLSCAASGFTFPSYAMGWYRQAPGKDREFVAGITKGGGNTYYADSVKGRFTISRDNAKNNVYLQMNSLKPEDTAVYYCAKCPLPRAGVKFDYWGQGTQVTVSS”, the “polyreactivity (PSR sort gate)” value was “low polyreactivity”.
With “QVQLVESGGGLVQAGGSLRLSCAASGFTFPTYAMGWYRPAPGKERELVAAITRGGSTYYADSVKGRFTISRDNAKNTVYLQMNSLKPEDTAVYYCAGDDPWYEEDYWGQGTQVTVSS” the “polyreactivity (PSR sort gate)” value was “low polyreactivity”.
With “QVQLVESGGGLVQAGGSLRLSCAASGFTFPVYAMGWYRQAPGKEREFVAAITKSGGGTYYADSVKGRFTISRDNAKNTVYLQMNSLKPVDTAVYYCAKASRRFLTLGYDYWGQGTQVTVSS” the “polyreactivity (PSR sort gate)” value was “high polyreactivity”.
In the case of “QVQLVESGGGLVQAGGSLRLSCAASGFTFPVYAMGWYRQAPGKERELVAAISRRGGRTYYADSVKGRFTISRDNAKNTVYLQMNSLKPEDTAVYYCAAQSVPYAYRLASYDYWGQGTQVTVSS”, the “polyreactivity (PSR sort gate)” value is reported as “high polyreactivity”.
In the case of “QVQLVESGGGLVQAGGSLRLSCAASGFTFPVYAMGWYRQAPGKERELVAAITYNGGSTYDADSVKGRFTISRDNAKHTVYFQMNSLKPEDTAVSYCAAEVFLRSLGYWYDYWGQGTQVTVSS”, the “polyreactivity (PSR sort gate)” value is reported as “high polyreactivity”.
For “QVQLVESGGGLVQAGGSLRLSCAASGFTFPWYAMGWYIQAPGKERELVASISYRGDSTYYADSVKGRFTISRDNAKNTVYLQMNSLKPEDTAVYYCNKRLASYYLPGFDYWGQGTQVTVSS”, the “polyreactivity (PSR sort gate)” value was “low polyreactivity”.
With “QVQLVESGGGLVQAGGSLRLSCAASGFTFPWYAMGWYRQAPGKERELVAAITSGGGSTYYADSVKGRFTISRYNAKNTVYLQMNSLKPEDTAVYYCATSYTKQGFRYYYWGQGTQVTVSS” the “polyreactivity (PSR sort gate)” value was “high polyreactivity”.
With “QVQLVESGGGLVQAGGSLRLSCAASGFTFPYNDMGWYIQARGKEREFVAAISRSGTRTYYADSVKGRFTISRDNAKHTVYLQMNSLKPEDTAVYYCNARAAGYARLGPGFDYWGQGTQVTVSS” the “polyreactivity (PSR sort gate)” value was “high polyreactivity”.
For “QVQLVESGGGLVQAGGSLRLSCAASGFTFPYYAMAWYRQAPGKEREVVAAISFSGGRTYYADSVMGRFTISRDNAKYTVYLQMNSLKPEDTAVYYCASYDYRNTGGGGYYYWGQGTQVTVSS”, the “polyreactivity (PSR sort gate)” value was “high polyreactivity”.
In the case of “QVQLVESGGGLVQAGGSLRLSCAASGFTFPYYAMGWYRQAPGKEMELVAVISGSGTRTNYADSVKGRFTISRDNAKNTVYLQMNSLKPEDTEVYYCAAYYTYLHYIYDYWGQGTQVTVSS”, the “polyreactivity (PSR sort gate)” value is reported as “high polyreactivity”.
For “QVQLVESGGGLVQAGGSLRLSCAASGFTFPYYAMGWYRQAPGKERDLVARISSGGSTNYADSVKGRFTISRDNAKNTVYLQMNSLKPEDTAVYYCNKVRTVTTYEYWGQGTQVTVSS”, the “polyreactivity (PSR sort gate)” value was “high polyreactivity”.
In the case of “QVQLVESGGGLVQAGGSLRLSCAASGFTFPYYAMGWYRQAPGKERELVAAISQGGASTRYADSVKGRFTISRDNAKNTVYLQMNSLKPEDTAVYYCAAKSRHFWMDYWGQGTQVTVSS”, the “polyreactivity (PSR sort gate)” value is reported as “high polyreactivity”.
For “QVQLVESGGGLVQAGGSLRLSCAASGFTFPYYAMGWYRQAPGKERELVAAISRSGTSTNYADSVKGRFTISRDNAKNTVYLQMNSLKPEDTAVYYCATARRQGKVIQYYYWGQGTQVTVSS”, the “polyreactivity (PSR sort gate)” value was “high polyreactivity”.
For “QVQLVESGGGLVQAGGSLRLSCAASGFTFPYYAMGWYRQAPGKERELVAAISSGGRTNYADSVKGRFTISRDNAKNTVYLQMNSLKPEDTAVYYCATRSYVFAWEFNYWGQGTQVTVSS”, the “polyreactivity (PSR sort gate)” value was “high polyreactivity”.
For “QVQLVESGGGLVQAGGSLRLSCAASGFTFPYYAMGWYRQAPGKERELVAAISTRGGSTYYADSVKGRFTISRDNAKNTVYLQMKSLKPEDTAVYYCAADPGRVTRVGVRYYYWGQGTQVTVSS”, the “polyreactivity (PSR sort gate)” value was “high polyreactivity”.
In the case of “QVQLVESGGGLVQAGGSLRLSCAASGFTFPYYAMGWYRQAPGKERELVAAISWDGGITYYADSVKGRFTISRDNAKNTVYLQMNSLKPEDTAVYYCNVEGWYDYDYWGQGTQVTVSS”, the “polyreactivity (PSR sort gate)” value is reported as “high polyreactivity”.
With “QVQLVESGGGLVQAGGSLRLSCAASGFTFPYYAMGWYRQAPGKERELVADITSGGGTNYADSVKGRFTISRDNAKNTVFLQMNSLKPEDTAVYYCAADAYHQGMDYWGQGTQVTVSS” the “polyreactivity (PSR sort gate)” value was “low polyreactivity”.
For “QVQLVESGGGLVQAGGSLRLSCAASGFTFQDYAMGWYRQAPGKERELVAAISTSDGNTYYADSVKGRFTISRDNAKNTVYLQMNSLKPEDTAVYYCAAQRNYGWVKFYYWGQGTQVTVSS”, the “polyreactivity (PSR sort gate)” value was “high polyreactivity”.
